Source: patent US20160185856A1 (INSERM INSTITUT NATIONAL DE LA SANTE ET DE LA RECHERCHE …, published 2016)

Tests used:
[1] = target: T1, murine CLDN1 (murine, UniProt O88551 1-211); assay: FACS on SW480 cells transiently transfected with murine CLDN1
T1 construct: whole, on cells; also called mCLDN1
T1 sequence (looked up): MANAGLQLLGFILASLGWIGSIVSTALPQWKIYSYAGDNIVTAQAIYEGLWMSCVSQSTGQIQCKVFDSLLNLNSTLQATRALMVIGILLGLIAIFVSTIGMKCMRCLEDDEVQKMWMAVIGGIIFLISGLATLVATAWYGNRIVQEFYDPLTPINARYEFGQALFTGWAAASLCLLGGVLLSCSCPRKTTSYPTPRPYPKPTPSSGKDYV
Method: (§1) A). Cell lysates derived from SW480 or CLDN-transfected SW480 were tested by Western-Blotting. B) FACS histograms of the binding 6F6C3 mAb (10 μg/mL-gray histogram) or control without 6F6C3 (dashed histogram) or irrelevant antibody 35A7 (black histogram) to the different CLDNs.
(§2) After transitory tranfection on SW480 cells of human cDNA clone of CLDN8 (sc320974, Origene technologies, USA) and murine cDNA clone of CLDN1 (IRAVp968A105D, LifeScience), we analysed by FACs cross-reactivity of 6F6C3 mAb.

[2] = target: T2, CLDN7 (UniProt O95471 1-211, limits assumed); assay: FACS on parental SW480 cells, which express CLDN7
T2 construct: whole, on cells; It is endogenous in the human SW480 cell line
T2 sequence (looked up): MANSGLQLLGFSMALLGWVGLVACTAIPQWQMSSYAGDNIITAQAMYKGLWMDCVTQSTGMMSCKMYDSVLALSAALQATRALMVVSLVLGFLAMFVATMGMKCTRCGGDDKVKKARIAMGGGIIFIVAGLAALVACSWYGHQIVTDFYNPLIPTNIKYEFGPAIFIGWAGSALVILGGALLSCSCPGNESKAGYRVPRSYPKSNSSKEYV
Method: as §1, §2

[3] = target: T3, CLDN8 (human, UniProt P56748 1-225); assay: FACS on SW480 cells transiently transfected with human CLDN8
T3 construct: whole, on cells; also called human CLDN8
T3 sequence (looked up): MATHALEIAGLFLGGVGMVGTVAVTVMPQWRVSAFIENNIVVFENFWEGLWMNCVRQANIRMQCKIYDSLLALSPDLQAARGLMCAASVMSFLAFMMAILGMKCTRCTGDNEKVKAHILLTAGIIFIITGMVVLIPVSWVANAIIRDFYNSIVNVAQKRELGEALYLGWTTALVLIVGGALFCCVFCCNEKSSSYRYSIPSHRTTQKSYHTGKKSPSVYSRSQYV
Method: as §1, §2

Measured: binding result

B1: 6F6C3 mAb (antibody, V domains shown)
VH: QIQLVQSGPELKKPGETVRISCKASGYTFTTSGMQWLQKMPGKGLKWIGWINTHFGEPKYAEDFKGRFAFSLETSASTAYLQISNLKNEDTATYFCAGAGYYGSRYFDVWGAGTTVTVSS
VL: DIVMTQSQKFMSTSVGDRVSITCKASQNVGTAVAWYQQKPGQSPKLLIYSASNRYTGVPDRFTGSGSGTDFTLTISNMQSEDLADYFCQQYSSYPLTFGGGTKLEIK
notes: Murine hybridoma antibody; Used as purified mAb or as hybridoma supernatant; also called mAb6F6C3; murine anti-CLDN1 antibody (6F6C3)
no binding (tested: 10 µg/mL): all assays above
